The source of these data is paper PMC12561398, “The N-Terminal Extension of the Mycobacterium avium Rel Protein Is a Dual Regulator of the Bifunctional Enzyme and Represents a Novel Target” (Antibiotics, 2025).

Data set [1] relates to MavRel TGS Y473W (Mycobacterium avium subsp. avium ATCC 25291). In words: tryptophan fluorescence quenching. Particulars: 50 mM Tris-HCl pH 8.5, 350 mM NaCl, 1 mM DTT; excitation 295 nm, emission 355 nm; temperature not stated.
In data set [2] the test system is MavRel Y473W (full length) (Mycobacterium avium subsp. avium ATCC 25291). Description: tryptophan fluorescence quenching. Particulars: 50 mM Tris-HCl pH 8.5, 350 mM NaCl, 1 mM DTT; excitation 295 nm, emission 355 nm; temperature not stated.
A further data set has as its target T1, MavRel ACT domain (Mycobacterium avium, UniProt A0ACG7XC01).
T1 construct: gene relA
The following applies: protein (dimer):valine 1:10 and 1:50; 50 mM Tris pH 8.5, 100 mM NaCl, 5% glycerol; 298 K; cleft at dimer interface.

The data set “SEC” deals with the molecule itself. Description: SEC.

By Kd is commonly meant the free concentration of one partner at which half of the binding sites on the other are occupied at equilibrium, for simple one-to-one binding. Low readings indicate higher affinity, high ones lower affinity. By stoichiometry N is commonly meant a count of units in the complex or per binding partner.

For the molecule deacylated E. coli tRNA, the dissociation constant (Kd) turned out to be 650 nM in data set [1] and 1670 nM in data set [2]. In the case of `CC(C)[C@H](N)C(=O)O` [valine], the chemical shift perturbation result on MavRel ACT domain was “indicates MavRel ACT:valine binding as well as a change in conformation”.

B1: MavRel_(51–444) (domain or fragment)
chain: MTAQRSTLNPVLEPLVAMHREIYPKANVQLLQRAFEVADQRHASQLRHSGDPYITHPLAVATILAELGMDTTTLVAALLHDTVEDTGYTLAQLSEEFGEEVGHLVDGVTKLDRVVLGSAAEGETIRKMITAMARDPRVLVIKVADRLHNMRTMRFLPPEKQARKARETLEVIAPLAHRLGMASVKWELEDLSFAILHPKKYDEIVRLVAGRAPSRDTYLAKVRAEIINTLNASKIKATVEGRPKHYWSIYQKMIVKGRDFDDIHDLVGIRILCDEIRDCYAAVGVVHSLWQPMAGRFKDYIAQPRYGVYQSLHTTVVGPEGKPLEVQIRTRDMHRTAEYGIAAHWRYKEAKGRNGVPHPHAAAEIDDMAWMRQLLDWQREAADPGEFLESLRYD
notes: source: E. coli C41(DE3), purified (Ni-NTA, SEC)
For B1, the “stoichiometry N” value in the data set “SEC” turned out to be 2.

B2: MavRel_(1–444) (domain or fragment, Mycobacterium avium subsp. avium, UniProt A0ACG7XC01 1-444, looked up)
chain: MAEENSAAQALDAPAESPPNPVIETPEPPTESLKTSSSASRRVRARLARRMTAQRSTLNPVLEPLVAMHREIYPKANVQLLQRAFEVADQRHASQLRHSGDPYITHPLAVATILAELGMDTTTLVAALLHDTVEDTGYTLAQLSEEFGEEVGHLVDGVTKLDRVVLGSAAEGETIRKMITAMARDPRVLVIKVADRLHNMRTMRFLPPEKQARKARETLEVIAPLAHRLGMASVKWELEDLSFAILHPKKYDEIVRLVAGRAPSRDTYLAKVRAEIINTLNASKIKATVEGRPKHYWSIYQKMIVKGRDFDDIHDLVGIRILCDEIRDCYAAVGVVHSLWQPMAGRFKDYIAQPRYGVYQSLHTTVVGPEGKPLEVQIRTRDMHRTAEYGIAAHWRYKEAKGRNGVPHPHAAAEIDDMAWMRQLLDWQREAADPGEFLESLRYD
notes: The N-terminal His6 tag is stated for the parent relA construct in pET29b; also called MavRel NTD; N-terminal domain (NTD) of MavRel; source: E. coli C41(DE3), purified (Ni-NTA, SEC)
With B2, the “stoichiometry N” value in “SEC” is 2.
